Measurements from PMC7097781 (Nature Structural & Molecular Biology, 2013).

Biological target: T1, human MacroD2 macrodomain (aa 7–243), wild type (human, UniProt A1Z1Q3 7-243)
T1 sequence (looked up): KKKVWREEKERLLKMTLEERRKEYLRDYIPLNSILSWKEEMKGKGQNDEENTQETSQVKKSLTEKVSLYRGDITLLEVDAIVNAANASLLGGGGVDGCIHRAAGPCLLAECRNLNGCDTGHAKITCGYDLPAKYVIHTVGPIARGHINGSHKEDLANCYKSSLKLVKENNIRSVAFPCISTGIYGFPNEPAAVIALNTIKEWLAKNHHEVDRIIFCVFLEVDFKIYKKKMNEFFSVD
Test: pull-down

B1: GST-PARP10 catalytic domain (aa 818–1025), ADP-ribosylated (domain or fragment, UniProt Q53GL7 818-1025, looked up)
chain: NNLERLAENTGEFQEVVRAFYDTLDAARSSIRVVRVERVSHPLLQQQYELYRERLLQRCERRPVEQVLYHGTTAPAVPDICAHGFNRSFCGRNATVYGKGVYFARRASLSVQDRYSPPNADGHKAVFVARVLTGDYGQGRRGLRAPPLRGPGHVLLRYDSAVDCICQPSIFVIFHDTQALPTHLITCEHVPRASPDDPSGLPGRSPDT
modifications: mono-ADP-ribosylated (automodified; single ADPr units on glutamate residues); sites not stated
B1: binds.
